Consider three molecules from patent publication US20060275295A1 (published 2006).

In experiment [1] the target is T1, GFP-THAP1 fusion protein (pEGFP.C2-THAP1) (human, UniProt Q5RCE4 1-213 (Pongo abelii entry)).
T1 construct: Expressed in transfected primary human endothelial cells (HUVEC); not shown: Enhanced Green Fluorescent Protein (EGFP) of pEGFP.C2 (Clontech), N-terminal
T1 sequence: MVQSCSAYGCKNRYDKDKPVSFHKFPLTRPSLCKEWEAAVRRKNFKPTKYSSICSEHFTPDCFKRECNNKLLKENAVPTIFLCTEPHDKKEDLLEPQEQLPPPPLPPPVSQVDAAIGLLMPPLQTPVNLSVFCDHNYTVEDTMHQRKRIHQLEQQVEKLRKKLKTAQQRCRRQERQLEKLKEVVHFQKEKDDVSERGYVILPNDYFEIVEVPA
The experiment is described as follows: in vivo interaction assay: co-transfection in primary human endothelial cells, confocal microscopy. The source says:
To provide further evidence for a physiological interaction between THAP1 and Par4 in vivo interactions between THAP1 and PAR4 were investigated. For that purpose, confocal immunofluorescence microscopy was used to analyze the subcellular localization of epitope-tagged Par4DD in primary human endothelial cells transiently cotransfected with pEF-mycPar4DD eukaryotic expression vector and GFP or GFP-THAP1 expression vectors (pEGFP.C2 and pEGFP.C2-THAP1, respectively). To generate pEF-mycPar4DD, mycPar4DD (amino acids 250-342) was amplified by PCR using pGBKT7-Par4DD as template, with primers myc.BD7 (5′-[…]-3′) (SEQ ID NO: 195) and Par4.9 (5′-[…]-3′) (SEQ ID NO: 196), and cloned into the XbaI and NotI sites of the pEF-BOS expression vector (Mizushima and Nagata, Nucleic Acids Research, 18:5322, 1990). Primary human endothelial cells from umbilical vein (HUVEC, PromoCell, Heidelberg, Germany) were grown in complete ECGM medium (PromoCell, Heidelberg, Germany), plated on coverslips and transiently transfected in RPMI medium using GeneJammer transfection reagent according to manufacturer instructions (Stratagene, La Jolla, Calif., USA). […] Cells were then washed three times 5 min at room temperature in PBS-BSA, and incubated for 1 hr with Cy3 (red fluorescence)-conjugated goat anti-mouse (1/1000, Amersham Pharmacia Biotech) secondary antibodies, diluted in PBS-BSA. […]

The target of experiment [2] is T2, human THAP1 (THanatos-Associated Protein-1), full length (human, UniProt Q9NVV9 1-213).
T2 construct: Used as Gal4-BD (pGBKT7) or Gal4-AD (pGADT7, pGAD424) fusion in yeast two-hybrid and as 35S-labelled in vitro translated protein (template pGBKT7-THAP1); also called hTHAP1; THAP1 wild type
T2 sequence: T1 sequence
Kind of experiment: yeast two-hybrid with THAP1 bait and GST pull-down with GST-THAP1.

For experiment [3], the target named is T2, human THAP1 (THanatos-Associated …). Kind of experiment: yeast two-hybrid, AH109, His/Ade selection. The source says:
285) and CXCL10-2 (5′-[…]-3′) (SEQ ID NO. 286), No. 2403734 (IFNγ) with primers IFN-1 (5′-[…]-3′) (SEQ ID NO: 287) and IFN-2 (5′-[…]-3′) (SEQ ID NO: 288). The PCR products were digested with EcoRI and BamHI, and cloned between EcoRI and BamHI cloning sites of vector pGBKT7 (Clontech).

B1: myc-Par4DD (epitope-tagged Par4DD, amino acids 250-342, pEF-mycPar4DD) (other, not shown: small tags and cut ends)
chain: GFPRYNRDANVSGTLVSSSTLEKKIEDLEKEVVTERQENLRLVRLMQDKEEMIGKLKEEIDLLNRDLDDIEDENEQLKQENKTLLKVVGQLTR
notes: Expressed in transfected primary human endothelial cells (HUVEC)
B1: the binding result in experiment [1] is reported as “binds”.

B2: SLC/CCL21ΔCOOH (SLC/CCL21 deletion mutant lacking the basic carboxy-terminal extension, amino acids 102-134) (ligand)
chain: SDGGAQDCCLKYSQRKIPAKVVRSYRKQEPSLGCSIPAILFLPRKRSQAELCADPKELWVQQLMQHLDKTPSPQKPAQG
notes: The BamHI-PstI fragment is said to encode SLC amino acids 24-102
For B2, the binding result in experiment [2] is reported as “binds”.

B3: human chemokine CXCL9, mature form (amino acids 23-125) (ligand)
chain: TPVVRKGRCSCISTNQGTIHLQSLKDLKQFAPSPSCEKIEIIATLKNGVQTCLNPDSADVKELIKKWEKQVSQKKKQKNGKKHQKKKVLKVRKSQRSRQKKTT
notes: Gal4 fusion in yeast or in vitro translated (pGBKT7 or pGADT7 template); tags not built in; also called MIG/CXCL9; MIG
On to B3, for which the binding result in experiment [3] was “binds”.
